Test system: vancomycin
Experiment: Vancomycin-reactivity with fibrinogen split products (t-PA incubated plasma) or BrCN-cleaved fibrinogen
Assay type: biochemical
Conditions: 50 μl 1000 IU/ml t-PA
Procedure: 25 μl P-Pool were incubated with 25 μl 0 mM or 15 mM CT in PBS for 60 min (RT). Then 50 μl 1000 IU/ml t-PA, 0.1% Triton X 100® in PBS were added. […] In addition, 10 mg/ml BrCN-cleaved fibrinogen in 6% BSA-PBS or in pooled serum were assayed in the FIATA.

B1: t-PA: t-PA, 1000 IU/ml in PBS, 0.1% Triton X 100 (protein, UniProt P00750 36-562, looked up)
Tissue-type plasminogen …: SYQVICRDEKTQMIYQQHQSWLRPVLRSNRVEYCWCNSGRAQCHSVPVKSCSEPRCFNGGTCQQALYFSDFVCQCPEGFAGKCCEIDTRATCYEDQGISYRGTWSTAESGAECTNWNSSALAQKPYSGRRPDAIRLGLGNHNYCRNPDRDSKPWCYVFKAGKYSSEFCSTPACSEGNSDCYFGNGSAYRGTHSLTESGASCLPWNSMILIGKVYTAQNPSAQALGLGKHNYCRNPDGDAKPWCHVLKNRRLTWEYCDVPSCSTCGLRQYSQPQFRIKGGLFADIASHPWQAAIFAKHRRSPGERFLCGGILISSCWILSAAHCFQERFPPHHLTVILGRTYRVVPGEEEQKFEVEKYIVHKEFDDDTYDNDIALLQLKSDSSRCAQESSVVRTVCLPPADLQLPDWTECELSGYGKHEALSPFYSERLKEAHVRLYPSSRCTSQHLLNRTVTDNMLCAGDTRSGGPQANLHDACQGDSGGPLVCLNDGRMTLVGIISWGLGCGQKDVPGVYTKVTNYLDWIRDNMRP
Question: How did the “time for 50% loss of vancomycin reactivity” value (15 mM CT-oxidized plasma) turn out when B1 was run?
Answer: The value was “about 1 h”.

Question: What about the “incubation time for complete loss of vancomycin reactivity” value (25 μl 15 mM CT-oxidized citrated plasma) of the same molecule?
Answer: Its value is 3 h.

Question: What about the “time for 50% loss of vancomycin reactivity” value (unoxidized plasma) of the same molecule?
Answer: Its value is 6 h.
